# According to patent US20260049151A1 (SHENGHE CHINA BIOPHARMACEUTICAL, published 2026):
# Read-outs that look alike come from different tables or passages of the source.
# T1: Human TNFR2 mFc (human, UniProt P20333 23-257)
# T1 construct: Bought protein; not shown: mFc
# T1 sequence (looked up): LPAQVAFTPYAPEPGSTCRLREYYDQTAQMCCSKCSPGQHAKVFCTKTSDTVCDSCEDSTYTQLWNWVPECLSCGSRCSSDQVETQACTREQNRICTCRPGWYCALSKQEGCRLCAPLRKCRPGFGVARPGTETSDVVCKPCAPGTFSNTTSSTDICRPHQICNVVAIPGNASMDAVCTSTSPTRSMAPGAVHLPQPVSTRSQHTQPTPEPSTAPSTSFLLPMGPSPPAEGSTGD
# T2: Human-TNFR2-His (human, UniProt P20333 23-257)
# T2 construct: Bought protein; also called human TNFR2 protein; TNFR2 protein; not shown: His tag
# T2 sequence (looked up): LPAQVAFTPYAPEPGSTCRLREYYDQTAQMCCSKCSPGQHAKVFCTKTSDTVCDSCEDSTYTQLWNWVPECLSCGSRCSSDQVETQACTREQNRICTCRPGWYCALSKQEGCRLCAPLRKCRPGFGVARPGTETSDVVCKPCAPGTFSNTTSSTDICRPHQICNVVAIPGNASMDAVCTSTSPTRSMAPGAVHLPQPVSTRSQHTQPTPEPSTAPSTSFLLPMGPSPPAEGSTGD
# How the values were obtained:
# Human TNFR2 mFc = target: T1, Human TNFR2 mFc; experiment: bridging ELISA: Human TNFR2 mFc coated (0.3 ug/mL), antibody titrated, then Human 4-1BB His (0.3 ug/mL), HRP anti-His detection (Example 5)
# Description: Human TNFR2 mFc (manufacturer: Kaixia, CAT: TN-HM3R2, LOT: 031202) was diluted to 0.3 μg/mL with a coating solution (1×PBS, pH7.4) and coated into a 96-well ELISA plate at 100 μL/well at 4° C. overnight. The coating solution was poured off. Each well was washed with 1×PBST at 300 μL, washed 4 times with a plate washer, and patted dry on a flat paper. It was blocked with 3% skim milk powder at 300 μL/well, and incubated at 37° C. for 1 h. The blocking solution was poured off, washed 4 times with a plate washer, and patted dry on a flat paper. […] Starting at 50 nM, which was used as the initial concentration for 3-fold dilution, a total of 10 gradients were diluted, and a blank well was set up and only the diluent was added. It was incubated at 37° C. for 1 h at 100 µL/well. The liquid in the well was discarded, washed 4 times with a plate washer, and patted dry on a flat paper. Human 4-1BB His (manufacturer: Acro, CAT: 41B-H5258, LOT: 198-2146F1-W6) was diluted to 0.3 μg/mL, 100 μL was added to each well, and incubated at room temperature for 1 h. The plate was washed 3 times with PBST, and then the HRP-labeled his antibody was diluted with sample diluent at 1:5000, 100 μ L was added to each well, and incubated at room temperature for 1 h. It was washed 6 times with a plate washer, and patted dry on a flat paper. TMB color developing solution was added at 100 μL/well, and wrapped with aluminum foil. Color development was performed at 37° C. in the dark for 8 min. Termination solution 1M HCl was added to terminate the color development reaction at 100 μL/well. Readings were taken at 450 nm on an ELISA reader.
# Human 4-1BB His = target: T3, Human 4-1BB His (human, UniProt Q07011 24-186); experiment: ELISA: Human 4-1BB His coated (0.2 ug/mL), antibody titrated, goat anti-human IgG Fc detection (Example 3)
# T3 construct: Bought protein; lots 198-2146F1-W6 and 2407c-214FF1-YC; also called human 4-1BB protein; 4-1BB protein; not shown: His tag
# T3 sequence (Q07011 24-186 limits assumed): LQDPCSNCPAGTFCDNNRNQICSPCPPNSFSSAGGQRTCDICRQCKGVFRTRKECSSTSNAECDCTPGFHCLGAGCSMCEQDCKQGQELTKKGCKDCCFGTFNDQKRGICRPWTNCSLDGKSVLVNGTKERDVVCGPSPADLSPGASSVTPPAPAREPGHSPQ
# Description: Human 4-1BB His (manufacturer: Acro, CAT: 41B-H5258, LOT: 198-2146F1-W6) was diluted to 0.2 μg/mL with a coating solution (1×PBS, pH7.4), and coated in 96-well ELISA plate at 100 μL/well overnight at 4° C. The coating solution was poured off. Each well was washed with 1×PBST at 300 μL, washed 4 times with a plate washer, and patted dry on a flat paper. It was blocked with 3% skim milk powder at 300 μL/well, and incubated at 37° C. for 1 h. The blocking solution was poured off, washed 4 times with a plate washer, and patted dry on a flat paper. Negative control and positive control were set up. […] The variable region of the antibody sequence of the positive control consists of SEQ ID NO: 15 and SEQ ID NO: 19, with the addition of the constant region of human IgG1 (SEQ ID NO: 46 and SEQ ID NO: 47). The positive control and antibody were diluted to 10 μg/mL with 3% skim milk powder as the starting concentration, and then diluted by 3-fold gradient (11 gradients in total), and a blank well was set up and only the diluent was added. It was incubated at 37° C. for 1 h at 100 μL/well. The liquid in the well was discarded, washed 4 times with a plate washer, and patted dry on a flat paper. Goat anti-human IgG Fc was diluted with 3% skim milk powder at 1:20000, and incubated at 37° C. for 1 h at 100 μL/well. It was washed 6 times with a plate washer, and patted dry on a flat paper. TMB color developing solution was added at 100 μL/well, and wrapped with aluminum foil. Color development was performed at 37° C. in the dark for 8 min. Termination solution 1M HCl was added to terminate the color development reaction at 100 μL/well. Readings were taken at 450 nm on an ELISA reader.
# Human-TNFR2-His [1] = target: T2, Human-TNFR2-His; experiment: ELISA: Human-TNFR2-His coated (0.1 ug/mL), antibody titrated, goat anti-human IgG Fc detection (Example 2)
# Description: (§1) Human-TNFR2-His (manufacturer: SINO, CAT: 10417-H08H, LOT: LC15NO0412) was diluted to 0.1 μg/mL with a coating solution (1×PBS, pH7.4), and coated in 96-well ELISA plate at 100 µL/well overnight at 4° C. The coating solution was poured off. Each well was washed with 1×PBST at 300 μL, washed 4 times with a plate washer, and patted dry on a flat paper. It was blocked with 3% skim milk powder at 300 μL/well, and incubated at 37° C. for 1 h. The blocking solution was poured off, washed 4 times with a plate washer, and patted dry on a flat paper. Negative control and positive control were set up. […] The positive control and antibody were diluted to 10 μg/mL with 3% skim milk powder as the starting concentration, and then diluted by 3-fold gradient (11 gradients in total), and a blank well was set up and only the diluent was added. It was incubated at 37° C. for 1 h at 100 μL/well. The liquid in the well was discarded, washed 4 times with a plate washer, and patted dry on a flat paper. Goat anti-human IgG Fc was diluted with 3% skim milk powder at 1:10000, and incubated at 37° C. for 1 h at 100 μL/well. It was washed 6 times with a plate washer, and patted dry on a flat paper. TMB color developing solution was added at 100 μL/well, and wrapped with aluminum foil. Color development was performed at 37° C. in the dark for 8 min. Termination solution 1M HCl was added to terminate the color development reaction at 100 μL/well. Readings were taken at 450 nm on an ELISA reader.
# Human 4-1BB Fc = target: T4, Human 4-1BB Fc (human, UniProt Q07011 24-186); experiment: bridging ELISA: Human 4-1BB Fc coated (0.3 ug/mL), antibody titrated, then Human-TNFR2-His (0.3 ug/mL), HRP anti-His detection (Example 4)
# T4 construct: same catalogue and lot number as Human 4-1BB His; not shown: Fc
# T4 sequence (Q07011 24-186 limits assumed): as above
# Description: Human 4-1BB Fc (manufacturer: Acro, CAT: 41B-H5258, LOT: 198-2146F1-W6) was diluted to 0.3 μg/mL with a coating solution (1×PBS, pH7.4) and coated into a 96-well ELISA plate at 100 µL/well at 4° C. overnight. The coating solution was poured off. Each well was washed with 1×PBST at 300 μL, washed 4 times with a plate washer, and patted dry on a flat sheet. It was blocked with 3% skim milk powder at 300 μL/well, and incubated at 37° C. for 1 h. The blocking solution was poured off, washed 4 times with a plate washer, and patted dry on a flat sheet. […] Starting at 50 nM, which was used as the initial concentration for 3-fold dilution, a total of 10 gradients were diluted, and a blank well was set up and only the diluent was added. It was incubated at 37° C. for 1 h at 100 μL/well. The liquid in the well was discarded, washed 4 times with a plate washer, and patted dry on a flat paper. Human-TNFR2-His (manufacturer: Sino, CAT: 10417-H08H, LOT: LC15NO0412) was diluted to 0.3 μg/mL, 100 μL was added to each well, and incubated at room temperature for 1 h. The plate was washed 3 times with PBST, and then the HRP-labeled his antibody was diluted with sample diluent at 1:5000, 100 μ L was added to each well, and incubated at room temperature for 1 h. It was washed 6 times with a plate washer, and patted dry on a flat paper. TMB color developing solution was added at 100 μL/well, and wrapped with aluminum foil. Color development was performed at 37° C. in the dark for 8 min. Termination solution 1M HCl was added to terminate the color development reaction at 100 μL/well. Readings were taken at 450 nm on an ELISA reader.
# Human-TNFR2-His [2] = target: T2, Human-TNFR2-His; experiment: ELISA: Human-TNFR2-His coated (0.1 ug/mL), antibody titrated, goat anti-human IgG Fc detection (Example 2); remark: listed apart in the source
# Description: as §1
EC50 (read off the curve) (Human TNFR2 mFc) [pM],EC50 (read off the curve) (Human 4-1BB His) [pM],EC50 (read off the curve) (Human-TNFR2-His [1]) [pM],EC50 (read off the curve) (Human 4-1BB Fc) [pM],EC50 (read off the curve) (Human-TNFR2-His [2]) [pM],Binder
~200,~200,~400,~500,–,"Antibody A (bispecific antibody, human IgG1, kappa, IgG1 subtype; full-length 4-1BB antibody with TNFR2 scFv at the C-terminus of the heavy chains; two identical first and two identical second peptide chains) light: DIQMTQSPSSLSASLGDRVTISCSASQGISNYLNWYQQKPDGTVKLLIYYTSTLHSGVPSRFSGSGSGTDYTLTISSLQPEDIATYYCQQYSKLPWTFGGGTKLEIKRTVAAPSVFIFPPSDEQLKSGTASVVCLLNNFYPREAKVQWKVDNALQSGNSQESVTEQDSKDSTYSLSSTLTLSKADYEKHKVYACEVTHQGLSSPVTKSFNRGEC heavy: not shown"
–,–,–,–,~100,"Antibody M2 (bispecific antibody, human IgG4 S228P, kappa, IgG4 subtype; same order as M1) light: DIQMTQSPSSLSASLGDRVTISCSASQGISNYLNWYQQKPDGTVKLLIYYTSTLHSGVPSRFSGSGSGTDYTLTISSLQPEDIATYYCQQYSKLPWTFGGGTKLEIKRTVAAPSVFIFPPSDEQLKSGTASVVCLLNNFYPREAKVQWKVDNALQSGNSQESVTEQDSKDSTYSLSSTLTLSKADYEKHKVYACEVTHQGLSSPVTKSFNRGEC heavy: not shown"
